{"source": "paper PMC5109225", "key": {"[1]": {"target": "Bemisia tabaci B Cyclophilin B protein (Bemisia tabaci B (endogenous in whitefly adults))"}, "[2]": {"target": "Bemisia tabaci B Cyclophilin B protein (Bemisia tabaci B (endogenous in whitefly adults))", "remark": "listed apart in the source"}}}
{"substance": "Tomato yellow leaf curl virus coat protein (in virions) (natural protein)", "values": [{"measurement": "TYLCV transmission rate to tomato test plants (one insect/plant) by whiteflies fed anti-CypB antibody (2 μg/μl in 25% sucrose, 24 h) before virus acquisition; control fed 25% sucrose: 60%", "setting": "[1]", "result": 17, "unit": "%"}, {"measurement": "TYLCV transmission rate to tomato test plants (one insect/plant) by whiteflies fed the Cyp inhibitor Cyclosporin A (2 μg/μl in 25% sucrose, 24 h) before virus acquisition; control fed 25% sucrose: 60%", "setting": "[2]", "result": 27, "unit": "%"}]}
